Test results from patent publication US9175053B2, “Chemical preparation of ubiquitin thioesters and modifications thereof” (BEN-GURION UNIVERSITY OF THE NEGEV RESEARCH AND DEVELOPMENT …, priority 2010, dated 2015).
Entries after “also recorded” stand apart in the source; their conditions may differ.

Molecular target: T1, recombinant human ubiquitin C-terminal hydrolase L3 (UCH-L3) (Homo sapiens, UniProt P15374)
T1 construct: purchased Aldrich
T1 sequence (P15374 1-230): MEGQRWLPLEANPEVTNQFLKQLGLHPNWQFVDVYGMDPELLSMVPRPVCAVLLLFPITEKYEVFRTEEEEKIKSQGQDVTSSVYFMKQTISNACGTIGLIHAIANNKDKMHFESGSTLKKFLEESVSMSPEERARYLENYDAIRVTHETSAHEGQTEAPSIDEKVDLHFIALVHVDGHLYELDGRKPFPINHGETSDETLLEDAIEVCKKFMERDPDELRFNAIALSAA
Test: Enzymatic cleavage of isopeptide by ubiquitin C-terminal hydrolase UCH-L3
Type: biochemical
Conditions: ~100 μM peptide, 12 hours at 37° C., Tris/NaCl/DTT buffer
Description: Purified peptide 8 was dissolved in 482 μL of assay buffer (50 mM Tris, 150 mM NaCl, 1 mM DTT, pH 7.5) to a final concentration of ˜100 μM and reacted with recombinant human ubiquitin C-terminal hydrolase L3 (UCH-L3, Aldrich). 10 μg of UCH-L3 in 15.5 μL of assay buffer containing 50 mM Tris, 150 mM NaCl, 12 mM DTT, pH 8.0 was incubated for 20 minutes at 25° C. To the reduced UCH-L3 was then added 8 in 187 μL. […] The reaction was analyzed using C-4 analytical RP-HPLC employing a gradient of 10-60% B for 30 minutes, in order to identify the hydrolysis.

Substance: 8: α-synuclein(1-17) model peptide ubiquitylated with synthetic Ub-SR via mercaptolysine, then desulfurized (Scheme 6) [Peptide 8]
- hydrolysis of the ubiquitylated peptide by UCH-L3 (RP-HPLC): UCH-L3 substrate; also recorded: complete hydrolysis
